# Test results published in patent publication US20220348635A1, “COMPOSITIONS AND METHODS FOR NEUROLOGICAL DISEASES” (Coda Biotherapeutics, Inc., priority 2019, published 2022).
# Assays:
# Format in all cases: cell-based
# [1] = High throughput electrophysiology in HEK293T cells, AZD-0328; details: HEK293T cells, held at −60 mV
# In short: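 Engineered receptors transiently expressed in HEK293T cells, recorded 24 h post-transfection by automated whole-cell patch clamp at −60 mV, CsCl intracellular, pH 7.2 extracellular buffer. Progressive agonist doses applied for 1 s; peak currents fit to a 4-parameter Hill equation for EC50.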
# [2] = Evoked action potentials in transduced rat DRG neurons, RG-3487; details: RG-3487 (SA-2) at 3 μM
# Description: Using whole cell manual patch clamp electrophysiology in HEK293 cells and rat DRG neurons, the EC50 of the various engineered receptors disclosed herein to Ach and non-native ligands was measured. The rheobase shift was also measured in rat DRG neurons, which reflects the efficacy of the receptors. To calculate the rheobase, first, the amount of current that can produce an action potential was determined. Then the ligand was added, followed by a step wise increase in the current injected up to 700 pA. The current injected after addition of the ligand was divided by, the original current injected to obtain an action potential, to calculate the rheobase. The EC50 was calculated using the Hill equation with peak current measurements from escalating doses of ligand.
# Acetylcholine at 3.0 mM had no effect on evoked action potentials in transduced neurons (n=4) (FIG. 4B).
# [3] = YFP quench plate reader assay, response to AZD-0328; details: LX293T YFP reporter cells
# In short: (§1)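 Double mutants of engineered chimeric receptor SEQ ID NO:33 are expressed transiently in YFP-reporter LX293T cells and challenged with ligand doses in iodide buffer. Quench is measured on a plate reader over 2 min, giving percent quench […].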
# [4] = YFP quench plate reader assay, response to APN-1125; details: LX293T YFP reporter cells
# In short: as §1
# [5] = High throughput electrophysiology in HEK293T cells, RG-3487
# Description: To confirm the EC50s determined by plate reader as well as develop a better understanding of maximum current flow, the engineered receptors were subjected to high throughput electrophysiology system, as described below. For HEK293T studies, cDNAs encoding ion channels were cloned into pcDNA3.1 using standard recombination techniques. HEK293T cells from Clontech (Lenti-X™ 293T Cell Line) were cultured in DMEM supplemented with 10% FBS and 1% Pen/Strep to 40-50% confluence using standard cell culture protocols, transfected with ion channel plasmids at a concentration of 18 μg per 15 cm dish using Fugene 6, and grown for an additional 24 hours. Cells were then assayed on a electrophysiological system (IonFluxHT and/or Mercury, Fluxion Biosciences) in which dose-response relationships may be assessed through a microfluidics-based platform for establishing whole cell configurations. […] Data were then analyzed off-line using custom Python scripts to convert data to .csv format, re-plot traces, and apply QC measurements to reject unstable recordings (i.e. thresholding based on access resistance and/or standard deviation in baseline, as well as artifact rejection). Peak currents were then calculated and population data were fit using a 4-parameter logistic equation as described by the Hill Equation. […]
# [6] = YFP quench plate reader assay, response to acetylcholine; details: LX293T YFP reporter cells
# In short: as §1
molecule,measurement,setting,value
"Y115D, L131Q in SEQ ID NO: 33: CR-11 (Chemogenic receptor-11): SEQ ID NO: 33 with substitutions Y115D and L131Q (protein, synthetic sequence of chimeric LGIC) MRCSPGGVWLALAASLLHVSLQGEFQRKLYKELVKNYNPLERPVANDSQPLTVYFSLSLLQIMDVDEKNQVLTTNIWLQMSWTDHYLQWNVSEYPGVKTVRFPDGQIWKPDILLDNSADERFDATFHTNVQVNSSGHCQYLPPGIFKSSCPMDLKNFPMDVQTCKLKFGSWSYGGWSLDLQMQEADISGYIPNGEWDLVGIPGKRSERFYECCKEPYPDVTFTVTMRRRMGYYLIQMYIPSLLIVILSWISFWINMDAAPARVGLGITTVLTMTTQSSGSRASLPKVSYVKAIDIWMAVCLLFVFSALLEYAAVNFVSRQHKELLRFRRKRRHHKSPMLNLFQEDEAGEGRFNFSAYGMGPACLQAKDGISVKGANNSNTTNPPPAPSKSPEEMRKLFIQRAKKIDKISRIGFPMAFLIFNMFYWIIYKIVRREDVHNQ",EC50 AZD-0328,[1],no activity
same,effect on current injection evoked action potentials,[2],reversibly inhibits
same,increase in the current required to elicit action potentials,[2]; n=7,~3 ×
same,"percent quench of YFP fluorescence, 100 nM azd",[3]; 100 nM AZD-0328,12.15%
same,"percent quench of YFP fluorescence, 300 nM azd",[3]; 300 nM AZD-0328,30.92%
same,"percent quench of YFP fluorescence, 30 uM azd",[3]; 30 uM AZD-0328,68.65%
same,"percent quench of YFP fluorescence, 100 nM apn",[4]; 100 nM APN-1125,−10.03%
same,"percent quench of YFP fluorescence, 1 uM apn",[4]; 1 uM APN-1125,−3.33%
same,"percent quench of YFP fluorescence, 30 uM apn",[4]; 30 uM APN-1125,6.96%
same,fold increased potency to RG-3487 compared to wild type receptor,[5],over 10 fold
same,"percent quench of YFP fluorescence, 10 uM ach",[6]; 10 uM acetylcholine,9.47%
same,"percent quench of YFP fluorescence, 100 uM ach",[6]; 100 uM acetylcholine,6.12%
same,"percent quench of YFP fluorescence, 1 mM ach",[6]; 1 mM acetylcholine,−1.56%
same,"percent quench of YFP fluorescence, 3 mM ach",[6]; 3 mM acetylcholine,17.57%
